Experiment [1] is described as follows: ω-transaminase activity assay, forward direction, adipate semialdehyde to 6-aminohexanoate. It is filed as biochemical. Conditions: cell free extract, 10 mM adipate semialdehyde, 10 mM L-alanine, 25° C., 4 h, vs empty vector control, FIG. 16. As for the experimental part: (§1) A nucleotide sequence encoding a His-tag was added to the genes from Chromobacterium violaceum, Pseudomonas aeruginosa, Pseudomonas syringae, Rhodobacter sphaeroides, and Vibrio fluvialis encoding the ω-transaminases of SEQ ID NOs: 7, 8, 9, 10 and 12, respectively (see FIGS. 7E and 7F) such that N-terminal HIS tagged ω-transaminases could be produced. Each of the resulting modified genes was cloned into a pET21a expression vector under control of the T7 promoter and each expression vector was transformed into a BL21[DE3] E. coli host. The resulting recombinant E. coli strains were cultivated at 37° C. in a 250 mL shake flask culture containing 50 mL LB media and antibiotic selection pressure, with shaking at 230 rpm. Each culture was induced overnight at 16° C. using 1 mM IPTG.
(§2) The pellet from each induced shake flask culture was harvested via centrifugation. Each pellet was resuspended and lysed via sonication. The cell debris was separated from the supernatant via centrifugation and the cell free extract was used immediately in enzyme activity assays.
Enzyme activity in the forward direction (i.e., adipate semialdehyde to 6-aminohexanoate) was confirmed for the transaminases of SEQ ID NO 7, SEQ ID NO 8, SEQ ID NO 9, SEQ ID NO 10 and SEQ ID NO 12. Enzyme activity assays were performed in a buffer composed of a final concentration of 50 mM HEPES buffer (pH=7.5), 10 mM adipate semialdehyde, 10 mM L-alanine and 100 μM pyridoxyl 5′ phosphate. Each enzyme activity assay reaction was initiated by adding a cell free extract of the ω-transaminase gene product or the empty vector control to the assay buffer containing the adipate semialdehyde and incubated at 25° C. for 4 h, with shaking at 250 rpm. The formation of pyruvate was quantified via RP-HPLC.

A short description of experiment [2]: ω-transaminase activity assay, reverse direction, 6-aminohexanoate to adipate semialdehyde. It is filed as biochemical. Conditions: cell free extract, 10 mM 6-aminohexanoate, 10 mM pyruvate, 25° C., 24 h, vs empty vector control, FIG. 15. As for the experimental part: as §1, §2
Enzyme activity assays in the reverse direction (i.e., 6-aminohexanoate to adipate semialdehyde) were performed in a buffer composed of a final concentration of 50 mM HEPES buffer (pH=7.5), 10 mM 6-aminohexanoate, 10 mM pyruvate and 100 μM pyridoxyl 5′ phosphate. Each enzyme activity assay reaction was initiated by adding cell free extract of the ω-transaminase gene product or the empty vector control to the assay buffer containing the 6-aminohexanoate and incubated at 25° C. for 24 h, with shaking at 250 rpm. The formation of L-alanine from pyruvate was quantified via RP-HPLC.

The source of these data is patent publication US9580733B2, “Methods of producing 6-carbon chemicals via methyl-ester shielded carbon chain elongation” (INVISTA North America S.á r.l., priority 2012, dated 2017).

B1: SEQ ID NO 8: Chromobacterium violaceum ω-transaminase (Genbank Accession No. AAQ59697.1) (protein, listed as Chromobacterium violaceum)
chain: MQKQRTTSQWRELDAAHHLHPFTDTASLNQAGARVMTRGEGVYLWDSEGNKIIDGMAGLWCVNVGYGRKDFAEAARRQMEELPFYNTFFKTTHPAVVELSSLLAEVTPAGFDRVFYTNSGSESVDTMIRMVRRYWDVQGKPEKKTLIGRWNGYHGSTIGGASLGGMKYMHEQGDLPIPGMAHIEQPWWYKHGKDMTPDEFGVVAARWLEEKILEIGADKVAAFVGEPIQGAGGVIVPPATYWPEIERICRKYDVLLVADEVICGFGRTGEWFGHQHFGFQPDLFTAAKGLSSGYLPIGAVFVGKRVAEGLIAGGDFNHGFTYSGHPVCAAVAHANVAALRDEGIVQRVKDDIGPYMQKRWRETFSRFEHVDDVRGVGMVQAFTLVKNKAKRELFPDFGEIGTLCRDIFFRNNLIMRACGDHIVSAPPLVMTRAEVDEMLAVAERCLEEFEQTLKARGLA
Turning to B1, the “ω-transaminase activity for converting adipate semialdehyde to 6-aminohexanoate (formation of pyruvate, RP-HPLC)” value in experiment [1] is recorded as “accepted adipate semialdehyde as substrate”.

B2: SEQ ID NO 10: Pseudomonas syringae ω-transaminase (Genbank Accession No. AAY39893.1) (protein, listed as Pseudomonas syringae)
chain: MSANNPQTLEWQALSSEHHLAPFSDYKQLKEKGPRIITRAEGVYLWDSEGNKILDGMSGLWCVAIGYGREELADAASKQMRELPYYNLFFQTAHPPVLELAKAISDIAPEGMNHVFFTGSGSEGNDTMLRMVRHYWALKGQPNKKTIISRVNGYHGSTVAGASLGGMTYMHEQGDLPIPGVVHIPQPYWFGEGGDMTPDEFGIWAAEQLEKKILELGVENVGAFIAEPIQGAGGVIVPPDSYWPKIKEILSRYDILFAADEVICGFGRTSEWFGSDFYGLRPDMMTIAKGLTSGYVPMGGLIVRDEIVAVLNEGGDFNHGFTYSGHPVAAAVALENIRILREEKIVERVRSETAPYLQKRLRELSDHPLVGEVRGVGLLGAIELVKDKTTRERYTDKGAGMICRTFCFDNGLIMRAVGDTMIIAPPLVISFAQIDELVEKARTCLDLTLAVLQG
In the case of B2, in experiment [2], the “ω-transaminase activity for converting 6-aminohexanoate to adipate semialdehyde (formation of L-alanine from pyruvate, RP-HPLC)” value is recorded as “accepted 6-aminohexanote as substrate”. Also, in experiment [1], the “ω-transaminase activity for converting adipate semialdehyde to 6-aminohexanoate (formation of pyruvate, RP-HPLC)” value is “accepted adipate semialdehyde as substrate”.

B3: SEQ ID NO 9: Pseudomonas aeruginosa ω-transaminase (Genbank Accession No. AAG08191.1) (protein, listed as Pseudomonas aeruginosa)
chain: MNARLHATSPLGDADLVRADQAHYMHGYHVFDDHRVNGSLNIAAGDGAYIYDTAGNRYLDAVGGMWCTNIGLGREEMARTVAEQTRLLAYSNPFCDMANPRAIELCRKLAELAPGDLDHVFLTTGGSTAVDTAIRLMHYYQNCRGKRAKKHVITRINAYHGSTFLGMSLGGKSADRPAEFDFLDERIHHLACPYYYRAPEGLGEAEFLDGLVDEFERKILELGADRVGAFISEPVFGSGGVIVPPAGYHRRMWELCQRYDVLYISDEVVTSFGRLGHFFASQAVFGVQPDIILTAKGLTSGYQPLGACIFSRRIWEVIAEPDKGRCFSHGFTYSGHPVACAAALKNIEIIEREGLLAHADEVGRYFEERLQSLRDLPIVGDVRGMRFMACVEFVADKASKALFPESLNIGEWVHLRAQKRGLLVRPIVHLNVMSPPLILTREQVDTVVRVLRESIEETVEDLVRAGHR
In the case of B3, the “ω-transaminase activity for converting 6-aminohexanoate to adipate semialdehyde (formation of L-alanine from pyruvate, RP-HPLC)” value in experiment [2] is “accepted 6-aminohexanote as substrate”. Moreover, the “ω-transaminase activity for converting adipate semialdehyde to 6-aminohexanoate (formation of pyruvate, RP-HPLC)” value in experiment [1] was “accepted adipate semialdehyde as substrate”.
